Experimental data from US9803012B2, “Compositions and methods for regulating SAS1R” (UNIVERSITY OF VIRGINIA PATENT FOUNDATION, priority 2005, dated 2017).

Key:
M2 oocytes = experiment: Co-localization of rSLLP1 binding sites and SAS1R on oocytes; type: cell-based, mouse; conditions: oocytes incubated with rSLLP1, probed with SLLP1 and SAS1R antibodies
Method: Zona intact-, zona free oocytes, early embryos and sperm were collected as before (10), blocked and probed with 1st and 2nd antibody and imaged with UV-microscopy. For co-LC studies, gametes were incubated with soluble rSAS1R or rSLLP1, washed, probed with 1st- and 2nd antibodies and imaged with UV-microscopy.
Mouse oocytes were also examined for co-localization of SLLP1 binding sites and SAS1R localization. Oocytes were incubated with gradually increasing concentrations (0-100 μg/ml) of recombinant SLLP1 for 1 h, and then oocytes were washed five times and incubated with guinea pig anti-recombinant SAS1R polyclonal antibody (1:200) and rat anti-recombinant SLLP1 polyclonal antibody (1:200), simultaneously, in 0.1% NGS/media for 1 h at 37° C. and 5% CO2. Oocytes were washed five times and incubated with goat anti-guinea pig/Cy3 Red antibody (1:200) (Jackson ImmunoResearch, PA) and goat anti-rat/FITC Green antibody (1:200) (Jackson ImmunoResearch, PA), in 0.1% NGS/media for 1 h at 37° C. and 5% CO2. Oocytes were washed and mounted in media on glass slides. SLLP1 and SAS1R images were captured separately with MrGrab 1.0 (Carl Zeiss Vision GmbH, Germany) on the Zeiss Standard 18 ultraviolet microscope and were merged digitally to evaluate their respective localizations.

rSAS1R = target: T1, rSAS1R (Mus musculus, UniProt Q6HA09); experiment: Far-Western analysis between SAS1R and SLLP1; type: binding
T1 construct: The mature rSAS1R (414 residues); 20 vector-encoded residues including His6 (pET-28b) (N); made in house; host or cells: E. coli BL21DE3
T1 sequence (Q6HA09 22-435): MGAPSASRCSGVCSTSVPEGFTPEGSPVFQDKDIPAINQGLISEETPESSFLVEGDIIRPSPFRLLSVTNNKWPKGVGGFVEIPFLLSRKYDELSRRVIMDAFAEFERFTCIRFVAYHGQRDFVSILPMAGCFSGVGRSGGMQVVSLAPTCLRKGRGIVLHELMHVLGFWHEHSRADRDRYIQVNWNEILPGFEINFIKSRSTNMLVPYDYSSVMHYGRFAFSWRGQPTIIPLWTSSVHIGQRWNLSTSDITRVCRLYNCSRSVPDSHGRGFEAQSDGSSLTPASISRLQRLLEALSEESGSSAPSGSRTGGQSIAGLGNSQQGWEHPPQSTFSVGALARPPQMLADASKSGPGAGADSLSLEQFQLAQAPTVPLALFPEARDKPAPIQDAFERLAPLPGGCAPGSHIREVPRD
T1 sequence (Q9D9X8 94-221 partner limits assumed): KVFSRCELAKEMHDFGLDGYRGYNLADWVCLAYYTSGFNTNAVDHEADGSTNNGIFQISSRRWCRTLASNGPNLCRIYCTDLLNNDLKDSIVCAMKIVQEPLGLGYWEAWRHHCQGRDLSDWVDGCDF
Method: Purified rSAS1R on nitrocellulose membrane was overlaid or not with soluble rSLLP1, washed and probed with anti-SLLP1 antibody.
Purified recombinant SAS1R was resolved by SDS-PAGE and transferred to nitrocellulose membranes. The membrane was probed with c-terminal anti-his monoclonal antibody and developed with TMB. Duplicate SAS1R blotted strips were overlaid with mouse rSLLP1 or not (with 5 μg/ml in blocking buffer i.e., 5% milk in PBS with 0.05% Tween 20 [PBST]) for 90 min at room temperature. Before protein overlay, the strips were incubated with blocking buffer for 1 h. Following overlay, the strips were incubated with either anti-SLLP1 (ADD2) monoclonal antibody for 1 h in blocking buffer. After washing in PBST (×4), the strips were probed with goat anti-mouse HRP secondary antibody in blocking buffer for 1 h, washed in PBST (×4) followed by PBS (×1), and developed with TMB.
To that end, 7.0 μg of recombinant ZEP was loaded onto a 12% SDS gel, subjected to PAGE, and transferred to a nitrocellulose membrane. The membrane was overlaid (OL) with recombinant SLLP1 (2.0 μg/ml) and probed with anti-SLLP1 monoclonal antibody and secondary antibody.

[1] = rSLLP1 overlay 5 μg/ml, anti-SLLP1 monoclonal antibody

B1: recmSLLP1: mature mouse SLLP1, residues 94 to 221, six-histidine C terminal tag, expressed in E. coli, about 15 kDa (protein)
chain: KVFSRCELAKEMHDFGLDGYRGYNLADWVCLAYYTSGFNTNAVDHEADGSTNNGIFQISSRRWCRTLASNGPNLCRIYCTDLLNNDLKDSIVCAMKIVQEPLGLGYWEAWRHHCQGRDLSDWVDGCDF
modifications: left off: small tags and cut ends
In the case of B1, the binding to oocytes (M2 oocytes) is reported as “binds to oocyte microvillar domain and co-localizes with native SAS1R”, the “binding to recombinant ZEP bands” value (rSAS1R; 7.0 μg recombinant ZEP, recombinant SLLP1 overlay 2.0 μg/ml) is reported as “signal was observed with the upper band of ZEP, but not with the lower band” and the “interaction with C-terminal SAS1R fragment (~25 kD)” value (rSAS1R; [1]) is reported as “very weakly”. For the same molecule, the “interaction with full length SAS1R doublet (~51, ~50 kD)” value (rSAS1R; [1]) was “interacted strongly”.
